Holding throughout (experiment): BLI
(In BLI a coated tip is dipped into the sample, and binding shifts an interference pattern.)

The target in test [1] is R11K (RBD 319-533 with 11 added lysines and the repackaging substitutions Y365F, F392W, V395I) (SARS-CoV-2 Wuhan Hu-1).
Test [2] addresses R11K-CL (R11K cross-linked with Bis-NHS-PEG5 while protected by S2X259) (SARS-CoV-2 Wuhan Hu-1).
Test [3] deals with R11K-PMD (R11K modified with NHS-PEG4-methyl while protected by S2X259) (SARS-CoV-2 Wuhan Hu-1).
For test [4], the target named is R11K-CL (R11K cross-linked with Bis-NHS-PEG5 while protected on S2X259 resin) (SARS-CoV-2 Wuhan Hu-1).
Test [5] has as its target R11K-PMD (R11K modified with NHS-PEG4-methyl while protected on S2X259 resin) (SARS-CoV-2 Wuhan Hu-1).
Test [6] addresses R11K (RBD with 11 additional lysines and three repackaging substitutions) (SARS-CoV-2 Wuhan Hu-1).

As a reminder, the koff is the first-order rate constant of dissociation. As usually defined, the Kd is the constant that tells how readily two partners part at equilibrium. Lower therefore signals higher affinity.

Regarding CB6 (class 1 RBD-directed antibody), the koff in test [1] was determined as 0.037 s⁻¹. The same measure, in the same setting: in the case of CR3022 (class 4 RBD-directed antibody) it was 0.059 s⁻¹; in that of S2X259 (class 4 RBD-directed antibody), 0.0021 s⁻¹.

For S2X259 IgG (antibody), the koff is 0.001 s⁻¹ in test [2] and 0.00085 s⁻¹ in test [3]. As to S309 (class 3 RBD-directed antibody), the figures for the off-rate constant (koff) in test [1], in test [4] and in test [5] were 0.00014 s⁻¹, 0.0021 s⁻¹ and 0.0019 s⁻¹, respectively.

As to “fragment antigen-binding region (Fab) of S2X259”, the dissociation constant (Kd) in test [6] is 1.5 nM.

These data come from PMC11503491.
